Laboratory results published in patent US20110218114A1, “NUCLEOTIDE TRIPHOSPHATE WITH AN ELECTROACTIVE LABEL CONJUGATED TO THE GAMMA PHOSPHATE” (priority 2007, published 2011).
Blank lines part the entries; values can stand above or below the molecule they belong to.

Experiments:
Assay type in all cases: biochemical
[1] = biological target: T1, Abl1-T315I (Homo sapiens, UniProt P00519, T315I); experiment: Electrochemical (CV) Fc-ATP phosphorylation assay, substrate peptide immobilized on gold microelectrode, Abl1-T315I; conditions: for phosphorylation of immobilized peptide by Abl1-T315I (anodic current response): control peptides, HeLa cell lysate, FIG. 12C
T1 construct: purchased Cell Signalling Technology (MA, USA)
Method: (§1) The covalent immobilization of substrate peptides on the gold microelectrode surface using succinimide-esters of lipoic acid included the following steps: (a) incubation of the bare gold microelectrode with 5 mM NHS-lipoic acid ester in ethanol for 15 h; (b) incubation of the N-Hydroxysuccinimide (NHS)-lipoic acid-modified surface with the substrate peptides in the presence of 2 mM N-(3-Dimethylaminopropyl)-N′-ethylcarbodiimide (EDC) in 0.1 M 2-(N-Morpholino) ethanesulfonic acid (MES, pH 6) for 2 h, (c) incubation of the peptide-modified electrodes with Mercaptopolyethylene glycol 5′000 monomethyl ether (PEG-thiol 5′000) solution (1:100 v/v) in ethanol for 10 min.
Abl1-T315I kinase assay buffer included 60 mM HEPES (pH 7.5), 5 mM MgCl2, 5 mM MnCl2, 3 μM Na3VO4, 400 μM ATP, peptide substrate (STP) and the kinase in a total reaction volume of 25 μL. Purified recombinant human Abl1-T315I mutant kinase and its substrate peptide Signal Transduction Protein (STP, EGIYDVP) were purchased from Cell Signalling Technology (MA, USA). The substrate peptide modified electrodes were incubated at 37° C. for 2 h. After following the same washing procedures as for CK2, the CV measurements were recorded using the same parameters as described above.
(§2) The electrochemical data from the CV measurements are obtained as charge density (J) per test. […] Here, the detailed description of the calculation procedure will be given for CK2-catalysed phosphorylation reactions. The reaction volume is 25 μL, which leads to 2.5 nmole Fc-ATP per test. Then, the specific electro-activity (SE) of Fc-ATP (J/nmole Fc-ATP) would be calculated as follows: […]
(§3) where V is the rate, V0 is the rate in the absence of the inhibitor, [I] is the inhibitor concentration and Ki′ is the apparent inhibition constant.
(§4) where [S] is the surface density of the immobilized substrate peptide and Km is the Michaelis-Menten constant. The surface density conditions of the immobilized substrate peptide were changed between 1, 5, 10, 15 and 20 pmol/cm2. The initial time dependence of the kinase reactions were determined at these varying peptide density conditions. The phosphorylation reaction was stopped after 5, 15, 30, 60, 90, 120 and 150 min, and the measurement of the attached Fc molecules was carried out. […] If the y is set for 0 and the equation is solved for x, x intercept becomes equal to −1/Km.

[2] = biological target: T2, HER2/ErbB2 (Homo sapiens, UniProt P04626); experiment: Electrochemical (CV) Fc-ATP phosphorylation assay, substrate peptide immobilized on gold microelectrode, HER2/ErbB2; conditions: for phosphorylation of immobilized peptide by HER2/ErbB2 (anodic current response): control peptides, FIG. 13C
T2 construct: purchased Cell Signalling Technology (MA, USA)
Method: as §1
(§5) The electrochemical data from the CV measurements are obtained as charge density (J) per test. The concentration of Fc-ATP for the kinase activity determinations was 100 μM, for CK2 and 200 μM for Abl1-T315I and HER2-ErbB2. Here, the detailed description of the calculation procedure will be given for CK2-catalysed phosphorylation reactions. The reaction volume is 25 μL, which leads to 2.5 nmole Fc-ATP per test. Then, the specific electro-activity (SE) of Fc-ATP (J/nmole Fc-ATP) would be calculated as follows: […]
(§6) The apparent inhibition constants Ki′ were determined by fitting equation (3) to the experimental data.
(§7) where V is the rate, V0 is the rate in the absence of the inhibitor, [I] is the inhibitor concentration and Ki′ is the apparent inhibition constant. The true inhibition constants Ki were calculated by correction of Ki′ according to Equation (4): […]
as §4

[3] = biological target: CK2α′ (Homo sapiens, UniProt P19784); experiment: Electrochemical (CV) Fc-ATP phosphorylation assay, substrate peptide immobilized on gold microelectrode, CK2α′
CK2α′, sequence (P19784 whole entry): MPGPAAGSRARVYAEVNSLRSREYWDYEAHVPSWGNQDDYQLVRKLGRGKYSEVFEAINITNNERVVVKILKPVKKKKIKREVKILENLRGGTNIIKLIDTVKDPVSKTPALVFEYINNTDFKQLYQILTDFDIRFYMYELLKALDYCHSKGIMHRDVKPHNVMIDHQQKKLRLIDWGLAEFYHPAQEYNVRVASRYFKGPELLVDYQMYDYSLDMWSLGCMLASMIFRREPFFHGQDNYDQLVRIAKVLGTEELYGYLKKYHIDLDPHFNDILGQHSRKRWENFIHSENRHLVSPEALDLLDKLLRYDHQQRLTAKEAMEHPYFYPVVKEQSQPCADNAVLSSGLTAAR
Method: as §1
(§8) The substrate peptide modified electrodes were incubated at 37° C. for 2 h.
as §5, §6, §7, §4

[4] = biological target: CK2α (Homo sapiens, UniProt P68400); experiment: Electrochemical (CV) Fc-ATP phosphorylation assay, substrate peptide immobilized on gold microelectrode, CK2α
CK2α, sequence (P68400 whole entry): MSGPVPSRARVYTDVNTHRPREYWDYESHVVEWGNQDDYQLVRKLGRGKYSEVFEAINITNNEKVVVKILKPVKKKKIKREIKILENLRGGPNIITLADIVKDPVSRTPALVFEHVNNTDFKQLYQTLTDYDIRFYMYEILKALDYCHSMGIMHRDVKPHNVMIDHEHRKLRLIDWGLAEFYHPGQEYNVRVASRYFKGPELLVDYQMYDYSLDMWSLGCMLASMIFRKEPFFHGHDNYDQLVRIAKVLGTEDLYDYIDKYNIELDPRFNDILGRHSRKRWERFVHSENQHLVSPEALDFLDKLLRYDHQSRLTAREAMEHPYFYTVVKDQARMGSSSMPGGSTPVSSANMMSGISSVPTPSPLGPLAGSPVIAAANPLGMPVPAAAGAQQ
Method: as §1, §8, §2, §3, §4

[5] = HER2/ErbB2, immobilized substrate peptide, Lineweaver-Burk
[6] = Abl1-T315I, immobilized substrate peptide, Lineweaver-Burk
[7] = CK2α′, immobilized substrate peptide, Lineweaver-Burk

inhibition of EGIYDVP phosphorylation (specificity control) ([1]; EGIYDVP peptide exposed to inhibitor, FIG. 11C-b): not inhibited
Molecule: Brc1c(Br)c(Br)c2[nH]nnc2c1Br [(1), 4,5,6,7-Tetrabromo-2-azabenzimidazole]

phosphorylation of immobilized peptide by Abl1-T315I (anodic current response) [1]: Low current responses | Vmax/Kmax ([2]; HER2/ErbB2, immobilized substrate peptide): 7.41 | Km [2, 5]: 208 µM | Vmax [2, 5]: 1.54 µmol/min/mg
Molecule: DNEYFYV [FLT3 substrate peptide for HER2/ErbB2]

Molecule: EGIYDVP [Abl1-T315I substrate peptide Signal Transduction Protein]
phosphorylation of immobilized peptide by CK2 (current response) ([3]; control peptide in presence of cell lysate, FIG. 10B-c): did not catalyze phosphorylation | Vmax/Kmax ([1]; Abl1-T315I, immobilized substrate peptide): 9.18 | Km [1, 6]: 182 µM | Vmax [1, 6]: 1.67 µmol/min/mg | phosphorylation of immobilized peptide by HER2/ErbB2 (anodic current response) [2]: slight increase in the current responses

Molecule: RRRDDDSDDD [CK2 peptide substrate]
Vmax/Kmax [4]: 22.64 | Km ([4]; Lineweaver-Burk): 87 µM | Vmax ([4]; Lineweaver-Burk): 1.97 µmol/min/mg | Vmax/Kmax ([3]; CK2α′, immobilized substrate peptide): 18.16 | Km [3, 7]: 98 µM | Vmax [3, 7]: 1.78 µmol/min/mg | phosphorylation of immobilized peptide by Abl1-T315I (anodic current response) [1]: did not catalyze phosphorylation | phosphorylation of immobilized peptide by Abl1-T315I (anodic current response) ([1]; listed as CK2 substrate peptide): No significant current responses | phosphorylation of immobilized peptide by HER2/ErbB2 (anodic current response) [2]: did not catalyze phosphorylation
